The values below come from US20220348675A1 (I MAB BIOPHARMA US, published 2022).

One assay has as its target T1, human 4-1BB-His protein (human, UniProt Q07011 24-186).
T1 construct: not shown: His tag
The experiment in a line: ELISA, coated human 4-1BB-His, detection with anti-human IgG-HRP, OD450.

In assay [1] the target is 4-1BB expressed on cells (HEK293-4-1BB, 4-1BB-Jurkat, GloResponse NFκB-luc2/4-1BB Jurkat) (UniProt Q07011). The experiment in a line: Flow cytometry on HEK293-4-1BB cells, PE anti-human IgG, MFI.
4-1BB expressed on cells (HEK293-4-1BB, 4-1BB-Jurkat, GloResponse NFκB-luc2/4-1BB Jurkat) (UniProt Q07011), sequence (Q07011 24-255 limits assumed): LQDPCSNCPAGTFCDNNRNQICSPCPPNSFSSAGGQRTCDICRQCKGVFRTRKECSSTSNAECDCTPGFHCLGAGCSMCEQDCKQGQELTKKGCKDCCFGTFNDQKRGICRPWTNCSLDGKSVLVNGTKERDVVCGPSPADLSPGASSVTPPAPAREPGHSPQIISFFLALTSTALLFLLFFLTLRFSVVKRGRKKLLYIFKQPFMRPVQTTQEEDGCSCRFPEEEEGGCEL
Assay [2] has as its target T2, 4-1BB expressed on cells (HEK293-4-1BB, 4-1BB-Jurkat, GloResponse NFκB-luc2/4-1BB Jurkat) (UniProt Q07011 24-255, limits assumed).
T2 construct: whole, on cells; also called HEK293 expressed 4-1BB; HEK293-4-1BB cells
The description is as above.
Experimental: To evaluate the antigen binding property, the anti-CLDN18.2-4-1BB antibodies were analyzed for their binding to HEK293 expressed 4-1BB by FACS. A total number of 1×10⁵ HEK293-4-1BB cells in each well were incubated with serial diluted antibodies for 30 minutes at 4° C. in FACS buffer (2% FBS in PBS). After wash by FACS buffer, PE conjugated-anti-human IgG antibody was added to each well and incubated at 4° C. for 30 minutes. After wash, MFI of PE was evaluated by FACS Caliber.

Another assay has as its target T3, human 4-1BB-Fc protein (human, UniProt Q07011 24-186).
T3 construct: not shown: Fc part
In words: ELISA, coated human 4-1BB-Fc.

For assay [3], the target named is human 4-1BB-biotin protein (human, UniProt Q07011 24-186, limits assumed). In words: Dual antigen capture ELISA: coated CLDN18.2 VLP, antibody titrated, then human 4-1BB-biotin at 1 ug/ml and streptavidin-HRP, OD450.
human 4-1BB-biotin protein, sequence (Q07011 24-186 limits assumed): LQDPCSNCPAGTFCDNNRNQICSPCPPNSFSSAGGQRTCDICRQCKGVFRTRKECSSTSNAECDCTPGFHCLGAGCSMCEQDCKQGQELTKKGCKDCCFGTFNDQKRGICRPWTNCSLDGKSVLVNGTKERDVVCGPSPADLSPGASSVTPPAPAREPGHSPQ

Numbering of substitutions follows the chain as printed.

T1 sequence (Q07011 24-186 limits assumed): as above
T3 sequence (Q07011 24-186 limits assumed): as above
T2 sequence (Q07011 24-255 limits assumed): as the sequence (Q07011 24-255 limits assumed) above
Experimental for human 4-1BB-Fc protein: To evaluate the antigen binding activity, the antibodies were subjected to ELISA test. Briefly, microtiter plates were coated with human 4-1BB-Fc protein at 0.1 μg/ml in PBS, 100 μl/well at 4° C. overnight, then blocked with 100 μl/well of 5% BSA. Five-fold dilutions of the antibodies starting from 10 μg/ml were added to each well and incubated for 1-2 hours at RT. The plates were washed with PBS/Tween and then incubate with goat-anti-human IgG antibody conjugated with Horse Radish Peroxidase (HRP) for 1 hour at RT. After washing, the plates were developed with TMB substrate and analyzed by spectrophotometer at OD 450-630 nm.

Consider “urelumab (BMUR) anti-4-1BB monoclonal antibody”, for which the values for the EC50 (read off the curve) (with human 4-1BB-His protein; in assay [1]) were 0.6 nM and 0.06 nM, respectively.

B1: 1A10 anti-4-1BB monoclonal antibody (antibody, V domains shown)
VH: EVQLLESGGGLVQPGGSLRLSCAASGFTFSSYDMSWVRQAPGKGLEWVSWISYSGGSIYYADSVKGRFTISRDNSKNTLYLQMNSLRAEDTAVYYCARDAQRNSMREFDYWGQGTLVTVSS
VL: QSVLTQPPSASGTPGQRVTISCSGSSSNIGNNYVTWYQQLPGTAPKLLIYADSHRPSGVPDRFSGSKSGTSASLAISGLRSEDEADYYCATWDYSLSGYVFGGGTKLTVL
For B1, the “EC50 (read off the curve)” value in the assay with human 4-1BB-His protein was around 0.5 nM; in assay [2], around 0.2 nM.

B2: 41B01.02 anti-4-1BB antibody (antibody, V domains shown)
VH: B1 VH with N103Q
VL: B1 VL with Q16R
notes: Full human anti-4-1BB antibody
Consider B2, for which the binding result with human 4-1BB-Fc protein is recorded as “binds”.

B3: 72C1B6A3 anti-CLDN18.2 monoclonal antibody (antibody, V domains shown)
VH: QVQLVQSGAEVKKPGASVKVSCKASGYTFTTYPIEWVRQAPGQRLEWMGNFHPYNDDTKYNEKFKGRVTITRDTSASTAYMELSSLRSEDTAVYYCARRAYGYPYAMDYWGQGTLVTVSS
VL: DIVMTQSPDSLAVSLGERATINCKSSQSLLNAGNQKNYLTWYQQKPGQPPKLLIYRASSRESGVPDRFSGSGSGTDFTLTISSLQAEDVAVYYCQNDYIYPYTFGGGTKLEIK
notes: also called CLDN18.2 mAb 72C1B6A3
B3: in assay [3], the binding result is reported as “no binding (tested: 100 nM)”.
